Reference: the supplement of paper PMC12764529
± gives the half width of the 95% confidence interval.

How the values were obtained:
[1] = folding stability dG unfold from trypsin proteolysis; higher = more stable
Procedure, shortened: (§1)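 Only designs with AlphaFold2 dimer inter-PAE above 15 were retained; each was a mini-protein under 80 residues with no cysteine, in a PA-tagged cDNA display construct. After digestion with trypsin and chymotrypsin and sequencing, K50 was inferred by Bayesian fitting of counts, and unfolding free energy was derived per protease or combined against a sequence-predicted unfolded-state K50 and a shared folded-state K50.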

[2] = folding stability dG unfold (combined trypsin and chymotrypsin); higher = more stable
Procedure, shortened: as §1

[3] = folding stability dG unfold from chymotrypsin proteolysis; higher = more stable
Procedure, shortened: as §1

Sequence	folding stability dG unfold [1]	folding stability dG unfold [2]	folding stability dG unfold [3]
SAGGSAGGSAGIIVRLPDGGWLIIDITMTRKYPPPDGKPKKVEFEFTIIISPKSGKIRIVSAGGSAGGSAGG [r11_271_TrROS]	2.94 ± 0.2 kcal/mol	3.01 ± 0.26 kcal/mol	3.21 ± 0.15 kcal/mol
SAGGSAGGSAGGSMSTINFPSKEEIEAYLKKLGLKNVKLPWYPNNNVMDTSDIEKDILESAGGSAGGSAGGS [r4_101_JUSTAS]	0.996 ± 0.022 kcal/mol	1.14 ± 0.058 kcal/mol	1.29 ± 0.03 kcal/mol
SAGGSAGGSAGSYTVEPVELDDDSTLIRYTYPTDPNAVFPVVTVYPDGPVLTEPVVYSSSSAGGSAGGSAGG [r11_747_JUSTAS]	0.271 ± 0.037 kcal/mol	0.244 ± 0.091 kcal/mol	0.0377 ± 0.11 kcal/mol
SAKMKLPEGAKPIAEKDGITIVEVPNKVIIRVRLPDGKEVTLTFPKSDLEEIEALIRELKDAGIEEIEFSAG [r14_12_TrROS_Hall]	0.876 ± 0.024 kcal/mol	0.815 ± 0.07 kcal/mol	0.762 ± 0.12 kcal/mol
SAGGEPGALSSSTYTITAPAKSVSKTVTVSYNPADGTATITFPESGKTITVPAVSDEEVLALIKEILLSAGG [r13_439_JUSTAS]	0.697 ± 0.025 kcal/mol	0.322 ± 0.065 kcal/mol	-0.67 ± 0.31 kcal/mol
SAGGSAGGSATQTIPFENPDGHPWTGTVEKRPDGMVKIDLTFPGGEKKEFYIPPGEEIRLPFSAGGSAGGSA [r18_115_TrROS]	0.775 ± 0.057 kcal/mol	0.42 ± 0.19 kcal/mol	0.0335 ± 0.24 kcal/mol
SAGGSAGGSAGGMLKTKVTVDPTPDGVTRVTETTYDPSTGALVKTSTTIVVPGTGEVTAVSAGGSAGGSAGG [r7_804_JUSTAS]	-0.779 ± 0.18 kcal/mol	0.669 ± 0.062 kcal/mol	1.04 ± 0.031 kcal/mol
MTLEELKAAEGKRLEDVVTVEIVRVERDPETGEEKVVEKRTITFPPGMTLEELKALLESLPAEVRITRVRRS [r1_132_TrROS_Hall]	1.85 ± 0.041 kcal/mol	2.11 ± 0.11 kcal/mol	2.27 ± 0.035 kcal/mol
SAGGSAGGSAGGSKKIVIRVKDKDGNEREIVLEVPEEELTEEEIAELAKKFPNAEIEVLSAGGSAGGSAGGS [r4_422_TrROS_Hall]	2.48 ± 0.13 kcal/mol	1.96 ± 0.13 kcal/mol	1.02 ± 0.053 kcal/mol
SAGGSAGGMIPLEEIEIEEITEETLPSNEKVITVKVKFPDGTKTLTFEPNEGEEKILEKIKELTSAGGSAGG [r6_233_JUSTAS]	0.544 ± 0.042 kcal/mol	0.734 ± 0.082 kcal/mol	0.727 ± 0.034 kcal/mol
SAGGSAGGSAGGEPEVEITIEVEERDGELVVRVTARFKDTDETITVEMTLEEVEALLKASAGGSAGGSAGGS [r10_1187_TrROS_Hall]	2.54 ± 0.061 kcal/mol	2.37 ± 0.077 kcal/mol	2.17 ± 0.061 kcal/mol
SAGGSAGGAPLMIMLEAEWKREPDPNGDKRRKVKLRVSIMTPRPDPDGKPNMHMISIPITFKVKSAGGSAGG [r6_224_TrROS]	2.87 ± 0.087 kcal/mol	3.51 ± 0.2 kcal/mol	4.08 ± 0.07 kcal/mol
SRKFLNDPNIDKVEPTIVIPMSPEERKELAQNLANGIYNYLREHGWPLPPNIEIKIIPFPSPEQMKKMMKSA [r9_204_TrROS]	0.6 ± 0.15 kcal/mol	0.901 ± 0.13 kcal/mol	1.09 ± 0.17 kcal/mol
SAGKYVTFNFPINIPPGDIKQMLNMIRDIARNLGLKPITDIEIDNIQRDDDYYRIRFEITIKVPPGDLKSAG [r5_575_TrROS]	2.44 ± 0.18 kcal/mol	3.34 ± 0.43 kcal/mol	4.29 ± 0.12 kcal/mol
SAGGSAGGSAGKVKLVEENGKLKLVVVDEKTKKVTVIEVPLENLDEILKLLPPGAKVYLLSAGGSAGGSAGG [r11_1006_TrROS_Hall]	1.05 ± 0.053 kcal/mol	2.12 ± 0.17 kcal/mol	2.52 ± 0.049 kcal/mol
SAGGSAGGSAERTLTITVPAAPGDIPALVAPDGSVYGIGDFEVIPGEGRVELKVTLVKPGDASAGGSAGGSA [r18_116_TrMRF]	-0.879 ± 0.1 kcal/mol	-0.0227 ± 0.051 kcal/mol	0.212 ± 0.032 kcal/mol

Sequence	folding stability dG unfold [1]	folding stability dG unfold [2]	folding stability dG unfold [3]
SAGGSATITIEVNGKPITIEFDKKNKTYTITLPNGKKVEVKVVDGELYITFANGEKRKISLKELKPSAGGSA [r15_448_TrROS_Hall]	2.68 ± 0.12 kcal/mol	3.81 ± 0.17 kcal/mol	4.34 ± 0.15 kcal/mol
SAGGSAMPVKTSTTTEGDTVTTYTLEPVGGSTTLTTTTTTVTKTNSGTTTTSTTTTTPLPTASGATSAGGSA [r15_725_JUSTAS]	-0.0787 ± 0.022 kcal/mol	-0.014 ± 0.074 kcal/mol	-0.108 ± 0.074 kcal/mol
SAGGSAGGSKTLKIEIPVEEESEEEARKKIKEALKELGIKEITEEDIKIERKEDGTLRAEIKLSAGGSAGGS [r12_122_TrROS_Hall]	0.987 ± 0.084 kcal/mol	0.817 ± 0.17 kcal/mol	0.343 ± 0.11 kcal/mol
SAGGSKSKIISASVFTTPDGEKVGVIKVLVKDPNGNPHLVIATIYSDGKIKVSVYYNGKVYTFEFDSAGGSA [r2_182_TrMRF]	2.41 ± 0.079 kcal/mol	3.52 ± 0.12 kcal/mol	3.95 ± 0.037 kcal/mol
SAGGSAGGSAEITVEWPNGRPVTVEPDPDSGMYEARFPDGWVVRAPFTNGKIPIDWIPPKDVSAGGSAGGSA [r18_405_TrROS]	-0.578 ± 0.28 kcal/mol	0.00326 ± 0.08 kcal/mol	0.282 ± 0.07 kcal/mol
SEEEVEEPEVRVEVREIRLDDLTEEERRRLRELAERLAREEPPEELPPGYRVRVEIRDGVIVSVEVEPVPSA [r9_905_TrROS_Hall]	1.84 ± 0.039 kcal/mol	1.85 ± 0.16 kcal/mol	1.9 ± 0.075 kcal/mol
SAGKRTIMIPFNVKPNQIRNIAKDIVEMHPGWKIKSIKVFNPNNGEPQELPLGDVPPNEPVWIKVEIEPSAG [r5_357_TrROS]	2.36 ± 0.1 kcal/mol	2.29 ± 0.15 kcal/mol	2.21 ± 0.05 kcal/mol
SAGGSAGGMYVIRVKIYDKETGELIEELTLVFDSEEEAERAVRELAAALPPDVRVEVEIVKLPPSAGGSAGG [r6_688_TrROS_Hall]	5.01 ± 0.18 kcal/mol	4.99 ± 0.096 kcal/mol	4.85 ± 0.059 kcal/mol
SAGGAVELRIVVRRTRPDPLTGRPVEEELTLTVPVDLDPERGVSAAEVARALAAALPDEVREVRAEPGSAGG [r13_335_TrMRF]	0.51 ± 0.17 kcal/mol	0.632 ± 0.12 kcal/mol	0.705 ± 0.08 kcal/mol
SAGGSAKITVEVVVRSLEELEALVKALAPPGMEVEVKIVSVERRTVEVNGEKREVLVVRVEIEVKPSAGGSA [r15_95_TrROS_Hall]	4.61 ± 0.37 kcal/mol	3.9 ± 0.33 kcal/mol	3.09 ± 0.17 kcal/mol
SGGMEKTENGNVRPVPLPTTVVKETPPEVSPEEAKERVEKELKEKGYKNVKVTTSYDPSTNLVTITVTVESA [r9_1124_JUSTAS]	0.447 ± 0.071 kcal/mol	0.564 ± 0.09 kcal/mol	0.624 ± 0.076 kcal/mol
MEITTTPYTDPNSETTYWLITATLPDGRRITIVITKPAGGPWTVEVYAPDGTRISSKTYSSEEEAIEEALTS [r1_478_JUSTAS]	3.3 ± 0.051 kcal/mol	3.25 ± 0.052 kcal/mol	3.2 ± 0.036 kcal/mol
SAGTAEEAKELARFFARELAPRNGMDVEIPDIKVETDPENGWIRITVEITFRWPHGRKQKHPFTIQIPVSAG [r5_381_TrROS]	1.48 ± 0.047 kcal/mol	1.47 ± 0.063 kcal/mol	1.25 ± 0.096 kcal/mol
SAGGSAGGSAGGPNLRIKLKPYPDGKWKIDEIEVPDNHVTIPMRFGNGGEERKTMPPEQISAGGSAGGSAGG [r7_829_TrROS]	1.42 ± 0.065 kcal/mol	0.666 ± 0.29 kcal/mol	-0.484 ± 0.48 kcal/mol
SAGGSAGGSAGGSSAKDILDELKGITFFHPNGRRYRITDVEIEPHGDGWVLSIEMEPYPSAGGSAGGSAGGS [r4_299_TrROS]	2.05 ± 0.057 kcal/mol	2.7 ± 0.059 kcal/mol	3.05 ± 0.034 kcal/mol
